This note sets out measurements from patent US20090275502A1, “METHODS AND COMPOSITIONS FOR ENHANCING DEVELOPMENTAL POTENTIAL OF OOCYTES AND PREIMPLANTATION EMBRYOS” (MOUNT SINAI HOSPITAL, priority 2005, published 2009).

Type in all cases: cell-based, mouse
The test system of test [1] is FVB oocytes. The test can be described thus: Electron microscopy of mitochondrial ultrastructure in FVB oocytes. To be noted: 10 mM, 3 h; versus vehicle. Here is the method: Electron microscopy: Oocytes were cultured without or with pyruvate (10 mM) for 3 h prior to being fixed for EM tomography. The oocytes were embedded in agarose and prepared for tomography using conventional protocols for good structural preservation (Ricci et al. 2004). To survey the preservation quality of the oocytes, thin-sectioned materials (−80 nm) were examined using a JEOL 1200FX electron microscope. Three-dimensional reconstructions of portions of the cell containing mitochondria were generated using standard techniques (Perkins et al. 2003). Sections with a thickness between 300-500 nm were cut out, and stained for 30 min in 2% aqueous uranyl acetate, followed by 30 min in lead salts. Next, fiducial cues consisting of 20 nm colloidal gold particles were deposited on both sides of each section.
For each reconstruction, a series of images at regular tilt increments were collected with a JEOL 4000EX intermediate-voltage electron microscope operated at 400 kV. In order to limit anisotropic specimen thinning during image collection, the specimens were irradiated before initiating a tilt series. […] Tilt series were recorded at a magnification of 20,000× with an angular increment of 2° from −60° to +60° about an axis perpendicular to the optical axis of the microscope using a computer-controlled goniometer to achieve accurate increments at each angular step. […]

In test [2] the test system is FVB oocytes. The test can be described thus: Reactive oxygen species (H2DCFDA) content of FVB oocytes. To be noted: co-treatment of FVB oocytes; inhibitor 2 μg ml^−1, 30 min; data not shown. As for the experimental part: Reduced glutathione (GSH) content: Quantitation of cellular GSH was assayed by use of monochlorobimane (Molecular Probes, Eugene, Oreg.), a cell-permeant dye that becomes fluorescent upon conjugation to thiol groups (Nasr-Esfahani and Johnson 1992). One group of untreated oocytes served as a control for measuring baseline GSH levels, whereas two other groups of oocytes were treated with I mM hydrogen peroxide (Sigma). For the latter, one group was exposed to hydrogen peroxide for 90 min (oxidative insult) whereas the second group was incubated with hydrogen peroxide for 30 min and transferred to fresh culture medium without hydrogen peroxide for an additional 60 min (recovery after oxidative insult). During the last 15 min of incubation, monochlorobimane was added to a final concentration of 1 mM, after which the oocytes were washed in fresh culture medium. Imaging and micrograph analyses were then conducted using a deconvolution microscope equipped with a cyan fluorescent protein filter. The average fluorescence intensities were tabulated on a per oocyte basis, and the data were then compiled per group. Reactive oxygen species: Formation of ROS was determined through the use of 2′,7′-dichlorodihydrofluorescein diacetate (H2DCFDA; Molecular Probes) as described (Yang et al. 1998). The H2DCFDA dye is membrane permeant, and upon entering the cell the acetate groups are hydrolyzed, creating a membrane impermeant form of the dye (H2DCF). Endogenous ROS oxidize this polar form of the dye to a quantifiable fluorogenic compound (DCF). Oocytes were mixed with a freshly prepared solution of 0.01 M H2DCFDA and incubated for 15 min. After extensive washing in fresh culture medium, imaging was carried out using a deconvolution microscope with a FITC filter. Total light intensity for each optical section and average light intensity for each oocyte were determined using the Delta Vision Software Analysis program. In order to determine baseline fluorescence, control oocytes (unstained) were incubated with an appropriate volume of vehicle (DMSO) prior to imaging. […]

In a further test the test system is B6C3F1 oocytes. The test can be described thus: Apoptosis in cultured B6C3F1 oocytes after microinjection. As for the experimental part:
(§1) Oocyte isolation and culture: Oocytes were collected after superovulation as described (Perez et al. 1997; Perez et al. 1999; Morita et al. 2000). Briefly, ovulated oocytes were denuded of cumulus cells by a 1-min incubation in 80 IU ml of hyaluronidase (Sigma, St. Louis, Mo.), followed by three washes with culture medium. All cultures were carried out in human tubal fluid (Irvine Scientific, Santa Ana, Calif.) supplemented with 0.5% BSA. The oocytes were maintained in 0.1 ml drops of culture medium under paraffin oil, and incubated at 37° C. in a humidified atmosphere of 5% CO2 and 95% air.
(§2) In-vitrofertilization and embryo culture: Female mice were superovulated as described above and cumulus-oocyte complexes from the indicated strains were mixed with capacitated sperm collected from adult male mice of the respective strain for in-vitro fertilization (Morita et al. 2000). […] Since zygotes progress to the blastocyst stage of development within 96 h and begin hatching, embryos were fixed at this time and stained with the DNA-binding dye Hoechst 33342 (Sigma) for light and fluorescence microscopic analysis of blastocyst cell number and quality. […] Analysis of DNA “comets” to generate quantitative data on the percent of undamaged versus damaged DNA was performed using the VisComet program (Impuls Computergestutzte Bildanalyse GmbH, Gilching, Germany). […]

For test [3], the system named is AKR/J oocytes. The test can be described thus: Comet assay of DNA damage in cultured AKR/J oocytes after microinjection. To be noted: 6 h culture after microinjection, versus non-injected AKR/J oocytes. Here is the method: as §1, §2
Another test deals with AKR/J zygotes. The test can be described thus: Preimplantation embryonic development of in-vitro fertilized AKR/J oocytes to the blastocyst stage. As for the experimental part:
In-vitrofertilization and embryo culture: Female mice were superovulated as described above and cumulus-oocyte complexes from the indicated strains were mixed with capacitated sperm collected from adult male mice of the respective strain for in-vitro fertilization (Morita et al. 2000). After 2 h, the cumulus-oocyte complexes were washed and maintained in KSOM medium (Specialty Media, Phillipsburg, N.J.) to determine fertilization rates and monitor embryonic progression. Since zygotes progress to the blastocyst stage of development within 96 h and begin hatching, embryos were fixed at this time and stained with the DNA-binding dye Hoechst 33342 (Sigma) for light and fluorescence microscopic analysis of blastocyst cell number and quality. Apoptosis analyses: Oocytes were evaluated as described (Perez et al. 1997; Perez et al. 1999; Mortia et al. 2000) for characteristics of apoptosis, including morphological changes (e.g., cellular condensation, budding and fragmentation) and biochemical alterations (i.e., DNA cleavage using Comet Assay Kit; Trevigen, Gaithersburg, Md.). Analysis of DNA “comets” to generate quantitative data on the percent of undamaged versus damaged DNA was performed using the VisComet program (Impuls Computergestutzte Bildanalyse GmbH, Gilching, Germany). […]

For test [4], the system named is AKR/J oocytes. Kind of test: Apoptosis in cultured AKR/J oocytes. To be noted: microinjection; versus non-injected and BSA-injected oocytes. As for the experimental part:
as §1, §2

In test [5] the test system is FVB oocytes. Kind of test: Apoptosis in cultured FVB oocytes. To be noted: microinjection; 24 h in vitro. As for the experimental part: as §1, §2

Consider `CC(=O)C(=O)O` [pyruvate], for which the “reduction in number of abnormal mitochondria in FVB oocytes” value in the test on FVB oocytes [1] is given as “more than 75%”. In the case of antimycin-A, the “reduction of ROS content” value with FVB oocytes [2] stood at 70%. Still for that read-out and setting: then `C=C(C)[C@H]1Cc2c(ccc3c2O[C@@H]2COc4cc(OC)c(OC)cc4[C@@H]2C3=O)O1` [rotenone], with 54%; and `CC[C@H]1/C=C/C=C/C[C@@H](C)[C@H](O)[C@@](C)(O)C(=O)[C@@H](C)[C@H](O)[C@@H](C)C(=O)[C@@H](C)[C@H](O)[C@@H](C)/C=C/C(=O)O[C@@H]2[C@H](C)[C@H](CC1)O[C@]1(CC[C@H](C)[C@H](C[C@@H](C)O)O1)[C@H]2C` [oligomycin], with 70%. In the case of “cytochrome c: cytochrome c microinjected into oocytes (6 pl of a 400 μM stock)”, the “apoptosis in B6C3F1 oocytes” value in the test with B6C3F1 oocytes (subsequent 24 h culture) is “did not affect the incidence of apoptosis”.

B1: Smac/DIABLO: recombinant death-promoting protein released along with cytochrome c from mitochondria (protein, UniProt Q9NR28 22-239, looked up)
Diablo IAP-binding …: LCVPVVANFKKRCFSELIRPWHKTVTIGFGVTLCAVPIAQKSEPHSLSSEALMRRAVSLVTDSTSTFLSQTTYALIEAITEYTKAVYTLTSLYRQYTSLLGKMNSEEEDEVWQVIIGARAEMTSKHQEYLKLETTWMTAVGLSEMAAEAAYQTGADQASITARNHIQLVKLQVEEVHQLSRKAETKLAEAQIEELRQKTQEEGEERAESEQEAYLRED
On to B1, for which the “increase in incidence of apoptosis in B6C3F1 oocytes” value in the test with B6C3F1 oocytes (24 h culture) is on record as roughly 3 fold.

B2: Rad51: recombinant Rad51 DNA repair protein (Kurumizaka et al. 1999), microinjected (protein, UniProt Q06609 2-339, looked up)
DNA repair protein RAD51 …: AMQMQLEANADTSVEEESFGPQPISRLEQCGINANDVKKLEEAGFHTVEAVAYAPKKELINIKGISEAKADKILAEAAKLVPMGFTTATEFHQRRSEIIQITTGSKELDKLLQGGIETGSITEMFGEFRTGKTQICHTLAVTCQLPIDRGGGEGKAMYIDTEGTFRPERLLAVAERYGLSGSDVLDNVAYARAFNTDHQTQLLYQASAMMVESRYALLIVDSATALYRTDYSGRGELSARQMHLARFLRMLLRLADEFGVAVVITNQVVAQVDGAAMFAADPKKPIGGNIIAHASTTRLYLRKGRGETRICKIYDSPCLPEAEAMFAINADGVGDAKD
Take B2: the “extent of DNA damage” value in the test with AKR/J oocytes [3] is listed as “decreased the extent of DNA damage”. Further, the “blastocyst formation rates of AKR/J zygotes” value with AKR/J zygotes (microinjection into AKR/J zygotes, compared with C57BL/6 zygotes) is “levels not different from those observed with C57BL/6 zygotes”. Also, the “microinjected AKR/J zygotes completing development to the blastocyst stage” value with AKR/J zygotes (microinjection into fertilized AKR/J oocytes, untreated less than 10%) is given as “more than 30%”. Besides, the “apoptosis in AKR/J oocytes” value in the test on AKR/J oocytes [4] is listed as “significantly suppressed apoptosis”. The “incidence of apoptosis in FVB oocytes” value in the test on FVB oocytes [5] is “no effect”.
